Experimental data taken from patent US20170073395A1 (Pfizer, published 2017).

Experiments:
mRAGE = molecular target: T1, mRAGE (mouse, UniProt Q62151 24-342, limits assumed); assay: Biacore specificity assay: IgG immobilised (about 300 RU), antigen m-RAGE-fc injected at 500 nM
T1 construct: also called mouse RAGE
Description: (§1) Biacore specificity analyses were performed using the T-200 biosensor, series S CM5 chips, an amine-coupling kit, 10 mM sodium acetate immobilization buffer at pH 5.0, 10× HBS-P running buffer and NaOH for regeneration (GE Healthcare). A predefined ligand (IgG) immobilization program was set up to immobilize approximately 300 Response Units (RU) on the flow cell for each IgG to be tested. For Anti-RAGE and anti-A33, a panel of fully-purified recombinant target and non-target antigens were diluted in HBS-P running buffer to a final concentration of 500 nM. Four groups of antigens were examined, including: cell membrane proteins (mTRKB, hTRKB, mEGFR, hEGFR, hFceR1, hIL-21R, mICAM1, mICAM2, hICAM1, hCD33, hLAMP-1, hLOX-1, and), soluble signaling molecules (mTNFa, hVEGF, hCXCL13) and albumins (BSA, HSA and MSA). These proteins were injected at 50 μl/min for 3 min, followed by a 5 sec pulse of 20 mM NaOH for regeneration of the chip surface. For pTau, a series of pTau-derived phosphorylated and non-phosphorylated peptides were flowed, as in Shih et al.³. All sensorgrams were analyzed using the Biacore T-200 evaluation software.

hRAGE = molecular target: T2, hRAGE (human, UniProt Q15109 24-344, limits assumed); assay: Biacore specificity assay: IgG immobilised (about 300 RU), antigen h-RAGE-fc injected at 500 nM
T2 construct: also called human RAGE
Description: as §1

hEGFR = molecular target: T3, hEGFR (human, UniProt P00533 25-645, limits assumed); assay: Biacore specificity assay: IgG immobilised (about 300 RU), antigen injected at 500 nM
T3 construct: Non-target panel protein
Description: as §1

hTRKB = molecular target: T4, hTRKB (human, UniProt Q16620 32-430, limits assumed); assay: as above
T4 construct: Non-target panel protein
Description: as §1

hLAMP-1 = molecular target: T5, hLAMP-1 (human, UniProt P11279 29-382, limits assumed); assay: as above
T5 construct: Non-target panel protein
T5 sequence (looked up): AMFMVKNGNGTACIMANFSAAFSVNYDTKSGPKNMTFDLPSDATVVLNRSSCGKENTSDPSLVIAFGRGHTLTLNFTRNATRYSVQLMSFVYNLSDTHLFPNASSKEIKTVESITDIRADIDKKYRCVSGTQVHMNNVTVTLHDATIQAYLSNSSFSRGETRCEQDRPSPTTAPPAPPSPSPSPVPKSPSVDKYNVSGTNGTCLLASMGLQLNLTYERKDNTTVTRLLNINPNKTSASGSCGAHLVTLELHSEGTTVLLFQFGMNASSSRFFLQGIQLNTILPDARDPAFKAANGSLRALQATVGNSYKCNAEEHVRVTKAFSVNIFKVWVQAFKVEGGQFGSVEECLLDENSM
Description: as §1

hVEGF = molecular target: T6, hVEGF (human, UniProt P15692-4 27-191, limits assumed); assay: as above
T6 construct: Non-target panel protein
Description: as §1

hLOX-1 = hLOX-1 (human, UniProt P78380 61-273); assay: as above
Description: as §1

mTRKB = molecular target: T7, mTRKB (mouse, UniProt P15209 32-429, limits assumed); assay: as above
T7 construct: Non-target panel protein
Description: as §1

hCXCL13 = molecular target: T8, hCXCL13 (human, UniProt O43927 23-109); assay: as above
T8 construct: Non-target panel protein
T8 sequence (looked up): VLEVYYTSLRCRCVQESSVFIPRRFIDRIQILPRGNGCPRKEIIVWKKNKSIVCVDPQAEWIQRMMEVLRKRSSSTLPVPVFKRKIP
Description: as §1

hICAM1 = molecular target: T9, hICAM1 (human, UniProt P05362 28-480, limits assumed); assay: as above
T9 construct: Non-target panel protein
Description: as §1

mICAM1 = molecular target: T10, mICAM1 (mouse, UniProt P13597 28-485, limits assumed); assay: as above
T10 construct: Non-target panel protein
Description: as §1

mTNFa = molecular target: T11, mTNFa (mouse, UniProt P06804 80-235); assay: as above
T11 construct: Non-target panel protein
T11 sequence (looked up): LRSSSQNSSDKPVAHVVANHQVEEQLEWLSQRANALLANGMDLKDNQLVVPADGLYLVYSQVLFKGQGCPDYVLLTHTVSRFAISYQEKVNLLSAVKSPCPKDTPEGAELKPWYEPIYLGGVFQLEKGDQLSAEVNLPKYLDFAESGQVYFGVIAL
Description: as §1

hCD33 = molecular target: T12, hCD33 (human, UniProt P20138 18-259, limits assumed); assay: as above
T12 construct: Non-target panel protein
Description: as §1

mICAM2 = molecular target: T13, mICAM2 (mouse, UniProt P35330 23-222, limits assumed); assay: as above
T13 construct: Non-target panel protein
T13 sequence (looked up): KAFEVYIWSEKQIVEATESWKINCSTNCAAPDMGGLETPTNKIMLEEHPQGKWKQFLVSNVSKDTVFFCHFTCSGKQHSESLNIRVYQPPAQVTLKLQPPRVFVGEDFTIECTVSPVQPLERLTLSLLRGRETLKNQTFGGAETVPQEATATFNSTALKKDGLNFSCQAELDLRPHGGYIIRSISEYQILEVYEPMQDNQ
Description: as §1

hIL-21R = molecular target: T14, hIL-21R (human, UniProt Q9HBE5 20-232, limits assumed); assay: as above
T14 construct: Non-target panel protein
Description: as §1

mEGFR = molecular target: T15, mEGFR (mouse, UniProt Q01279 25-647, limits assumed); assay: as above
T15 construct: Non-target panel protein
Description: as §1

hFceR1 = molecular target: T16, hFceR1 (human, UniProt P12319 26-205); assay: as above
T16 construct: Non-target panel protein
T16 sequence (alpha): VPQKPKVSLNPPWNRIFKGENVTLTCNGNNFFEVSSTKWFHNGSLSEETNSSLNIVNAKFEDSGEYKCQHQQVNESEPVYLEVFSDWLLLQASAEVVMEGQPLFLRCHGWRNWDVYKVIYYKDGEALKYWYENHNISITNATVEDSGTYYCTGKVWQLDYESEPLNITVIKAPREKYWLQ
Description: as §1

[1] = molecular target: T17, Human A33 ectodomain protein (human, UniProt Q99795 22-235); assay: HTRF epitope competition, IgG titrated; competitor parental IgG (Par-A33)
T17 construct: extracellular domain
T17 sequence (looked up): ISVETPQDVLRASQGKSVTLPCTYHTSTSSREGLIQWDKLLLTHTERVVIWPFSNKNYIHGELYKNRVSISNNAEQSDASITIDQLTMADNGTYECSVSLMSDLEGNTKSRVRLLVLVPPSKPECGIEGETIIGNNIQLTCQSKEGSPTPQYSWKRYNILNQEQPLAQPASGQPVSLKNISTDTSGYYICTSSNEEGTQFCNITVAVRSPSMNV

[2] = molecular target: T17, Human A33 ectodomain protein; assay: Biacore T-200 SPR, IgG immobilised (~100 RU), purified target protein injected
Description: Biacore analysis was performed using the T-200 biosensor, series S CM5 chips, an amine-coupling kit, 10 mM sodium acetate immobilization buffer at pH 5.0, 10×HBS-P running buffer and NaOH for regeneration (GE Healthcare). Kinetic assay conditions were established to minimize the influence of mass transfer, avidity and rebinding events. A predefined ligand immobilization program was set up to immobilize approximately 100 Response Units (RU) of IgG on the chip. Purified target proteins were diluted in HBS-P running buffer to a range of final concentrations and injected at 50 μl/min for 3 mins. Dissociation was allowed to proceed for 10 min followed by a 5 sec pulse of 20 mM NaOH for regeneration of the chip surface. All sensorgrams were analyzed using the Biacore T-200 evaluation software.

T14 sequence (Q9HBE5 20-232 limits assumed): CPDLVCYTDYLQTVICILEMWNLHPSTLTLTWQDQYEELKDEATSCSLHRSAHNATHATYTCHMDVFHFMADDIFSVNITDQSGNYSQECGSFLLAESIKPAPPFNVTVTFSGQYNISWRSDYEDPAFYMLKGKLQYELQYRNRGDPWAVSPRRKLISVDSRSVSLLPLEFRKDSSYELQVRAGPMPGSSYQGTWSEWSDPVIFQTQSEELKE
T12 sequence (P20138 18-259 limits assumed): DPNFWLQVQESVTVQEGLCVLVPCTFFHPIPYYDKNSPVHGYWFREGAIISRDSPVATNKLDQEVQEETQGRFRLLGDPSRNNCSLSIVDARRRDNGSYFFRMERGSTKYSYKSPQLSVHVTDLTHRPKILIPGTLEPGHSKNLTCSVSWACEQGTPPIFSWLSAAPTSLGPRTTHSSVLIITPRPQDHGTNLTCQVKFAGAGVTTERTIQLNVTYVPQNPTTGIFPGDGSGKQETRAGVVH
T7 sequence (P15209 32-429 limits assumed): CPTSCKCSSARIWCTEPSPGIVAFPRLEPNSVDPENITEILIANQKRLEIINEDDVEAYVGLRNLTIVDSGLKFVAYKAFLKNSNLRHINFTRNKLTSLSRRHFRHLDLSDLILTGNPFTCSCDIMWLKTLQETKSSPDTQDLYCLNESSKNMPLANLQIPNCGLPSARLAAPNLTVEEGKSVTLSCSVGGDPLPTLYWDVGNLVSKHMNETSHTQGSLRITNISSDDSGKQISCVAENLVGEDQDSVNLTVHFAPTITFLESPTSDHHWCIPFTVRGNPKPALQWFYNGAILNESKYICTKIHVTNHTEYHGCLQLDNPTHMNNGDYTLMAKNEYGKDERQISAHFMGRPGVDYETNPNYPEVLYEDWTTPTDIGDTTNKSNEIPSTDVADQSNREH
T6 sequence (P15692 other isoform, or with tags, fused parts or gaps limits assumed): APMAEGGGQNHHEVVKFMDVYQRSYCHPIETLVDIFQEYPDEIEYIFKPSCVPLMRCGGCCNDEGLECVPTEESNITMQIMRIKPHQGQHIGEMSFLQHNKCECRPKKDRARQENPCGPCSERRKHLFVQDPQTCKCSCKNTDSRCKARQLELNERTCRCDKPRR
T10 sequence (P13597 28-485 limits assumed): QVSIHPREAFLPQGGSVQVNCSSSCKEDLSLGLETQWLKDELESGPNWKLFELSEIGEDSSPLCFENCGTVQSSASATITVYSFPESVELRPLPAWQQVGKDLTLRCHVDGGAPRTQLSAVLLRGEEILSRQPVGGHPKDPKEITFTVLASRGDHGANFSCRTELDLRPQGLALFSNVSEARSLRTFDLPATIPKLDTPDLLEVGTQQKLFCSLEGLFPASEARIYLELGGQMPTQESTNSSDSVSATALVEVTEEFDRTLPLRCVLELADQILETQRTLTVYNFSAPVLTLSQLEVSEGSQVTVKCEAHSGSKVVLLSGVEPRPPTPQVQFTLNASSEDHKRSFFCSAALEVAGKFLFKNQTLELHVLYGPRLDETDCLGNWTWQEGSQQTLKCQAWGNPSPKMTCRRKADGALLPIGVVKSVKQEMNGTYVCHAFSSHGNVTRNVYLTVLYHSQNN
T4 sequence (Q16620 32-430 limits assumed): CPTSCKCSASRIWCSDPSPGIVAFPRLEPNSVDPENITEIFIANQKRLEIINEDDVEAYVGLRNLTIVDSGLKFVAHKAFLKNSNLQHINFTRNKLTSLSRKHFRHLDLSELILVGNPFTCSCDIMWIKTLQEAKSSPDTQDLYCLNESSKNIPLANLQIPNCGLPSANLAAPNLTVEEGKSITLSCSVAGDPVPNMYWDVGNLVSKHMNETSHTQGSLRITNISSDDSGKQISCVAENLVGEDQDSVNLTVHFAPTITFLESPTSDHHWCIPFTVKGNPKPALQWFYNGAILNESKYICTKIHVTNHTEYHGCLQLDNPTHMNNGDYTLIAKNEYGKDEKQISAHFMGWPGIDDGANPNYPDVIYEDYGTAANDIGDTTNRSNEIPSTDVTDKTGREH
T9 sequence (P05362 28-480 limits assumed): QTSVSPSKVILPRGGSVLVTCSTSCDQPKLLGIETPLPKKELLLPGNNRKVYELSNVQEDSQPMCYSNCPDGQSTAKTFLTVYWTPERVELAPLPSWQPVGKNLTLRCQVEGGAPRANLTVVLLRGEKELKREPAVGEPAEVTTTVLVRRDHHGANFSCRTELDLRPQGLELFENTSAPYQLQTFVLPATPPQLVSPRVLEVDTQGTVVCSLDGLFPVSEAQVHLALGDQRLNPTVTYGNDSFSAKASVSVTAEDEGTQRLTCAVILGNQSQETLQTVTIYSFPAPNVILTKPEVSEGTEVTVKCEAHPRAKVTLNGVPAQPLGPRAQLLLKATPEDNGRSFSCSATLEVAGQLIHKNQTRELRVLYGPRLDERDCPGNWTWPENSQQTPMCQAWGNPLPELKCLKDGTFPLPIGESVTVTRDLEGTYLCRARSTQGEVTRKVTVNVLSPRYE
T1 sequence (Q62151 24-342 limits assumed): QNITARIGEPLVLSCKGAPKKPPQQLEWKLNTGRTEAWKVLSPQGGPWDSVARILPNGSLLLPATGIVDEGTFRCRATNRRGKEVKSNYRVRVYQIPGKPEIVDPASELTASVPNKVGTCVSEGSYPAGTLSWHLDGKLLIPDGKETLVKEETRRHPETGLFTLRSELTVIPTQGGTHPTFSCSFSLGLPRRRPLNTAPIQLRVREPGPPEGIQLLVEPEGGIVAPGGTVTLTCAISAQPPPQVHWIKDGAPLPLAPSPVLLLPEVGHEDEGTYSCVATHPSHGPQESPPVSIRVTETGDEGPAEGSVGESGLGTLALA
T2 sequence (Q15109 24-344 limits assumed): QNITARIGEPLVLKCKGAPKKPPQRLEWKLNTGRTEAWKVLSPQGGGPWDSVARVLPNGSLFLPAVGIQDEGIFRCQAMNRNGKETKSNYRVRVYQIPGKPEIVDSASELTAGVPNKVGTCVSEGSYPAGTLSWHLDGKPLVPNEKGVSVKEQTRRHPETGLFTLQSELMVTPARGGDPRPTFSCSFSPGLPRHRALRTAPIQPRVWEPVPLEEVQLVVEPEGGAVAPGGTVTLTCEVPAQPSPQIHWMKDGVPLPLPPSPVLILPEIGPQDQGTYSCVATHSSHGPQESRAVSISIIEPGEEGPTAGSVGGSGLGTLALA

B1: Par-RAGE IgG (rat anti-RAGE XT-M4 parental v-domains on the human IgG1 backbone) (antibody, V domains shown)
VH: EVQLVESGGGLVQPGRSLKLSCVVSGFTFNNYWMTWIRQTPGKGLEWVASIDNSGDNTYYPDSVKDRFTISRDNAKSTLYLQMNSLRSEDTATYYCTRGGDITTGFDYWGQGVMVTVSS
VL: DIQMTQSPSSMSVSLGDTITITCRASQDVGIYVNWFQQKPGKSPRRMIYRATNLADGVPSRFSGSRSGSIYSLTISSLESEDVADYHCLEFDEHPLTFGSGTKVEIK
notes: Human IgG1 backbone; also called XTM4 RAGE
B1: binds (mRAGE); binds (hRAGE); no binding (tested: 500 nM) (hEGFR). B1: no binding (tested: 500 nM) (hTRKB); no binding (tested: 500 nM) (hLAMP-1); no binding (tested: 500 nM) (hVEGF). B1: no binding (tested: 500 nM) (hLOX-1); no binding (tested: 500 nM) (mTRKB); no binding (tested: 500 nM) (hCXCL13). B1: no binding (tested: 500 nM) (hICAM1); no binding (tested: 500 nM) (mICAM1); no binding (tested: 500 nM) (mTNFa). B1: no binding (tested: 500 nM) (hCD33); no binding (tested: 500 nM) (mICAM2); no binding (tested: 500 nM) (hIL-21R). B1: no binding (tested: 500 nM) (mEGFR); no binding (tested: 500 nM) (hFceR1).

B2: Chim-A33 IgG (rabbit anti-A33 parental v-domains on the human IgG1 backbone) (antibody, V domains shown)
VH: QEQLMESGGGLVTLGGSLKLSCKASGIDFSHYGISWVRQAPGKGLEWIAYIYPNYGSVDYASWVNGRFTISLDNAQNTVFLQMISLTAADTATYFCARDRGYYSGSRGTRLDLWGQGTLVTISS
VL: ELVMTQTPPSLSASVGETVRIRCLASEFLFNGVSWYQQKPGKPPKFLISGASNLESGVPPRFSGSGSGTDYTLTIGGVQAEDVATYYCLGGYSGSSGLTFGAGTNVEIK
notes: also called Par-A33; A33 Rabbit
B2 was tested, and the IC50 [1] was 2.9 nM, the binding result (hEGFR) was “no binding (tested: 500 nM)” and the binding result (hTRKB) was “no binding (tested: 500 nM)”. B2: no binding (tested: 500 nM) (hLAMP-1); no binding (tested: 500 nM) (hVEGF); no binding (tested: 500 nM) (hLOX-1). B2: no binding (tested: 500 nM) (mTRKB); no binding (tested: 500 nM) (hCXCL13); no binding (tested: 500 nM) (hICAM1). B2: no binding (tested: 500 nM) (mICAM1); no binding (tested: 500 nM) (mTNFa); no binding (tested: 500 nM) (hCD33). B2: no binding (tested: 500 nM) (mICAM2); no binding (tested: 500 nM) (hIL-21R); no binding (tested: 500 nM) (mEGFR). The binding result (hFceR1) was “no binding (tested: 500 nM)” and the Kd [2] was 2.1 nM.
